The supplement of paper PMC6757056
± gives the standard deviation of the averaged measurements.

B1: library; a variant is named by its letters at N, in order (parent)
chain: GCUGUCACCGAGAAACUGUGAAGUAUAUCUUAAACCUGGGCACUUAAAAGAUAUAUGGAGUUAGUAGUGCAACCUGCUCGGUCUGAUGAGUCCNNNNNNGGACGAAACAGC

What was measured:
[1] = variants of: B1; experiment: FACS-Seq fitted mean relative fluorescence mCherry/BFP without ligand (log10 relative fluorescence); HEK293T; ligand: cyclic di-GMP (c-di-GMP-II aptamer); higher = higher reporter protein expression; conditions: ligand present: no
Procedure, shortened: (§1)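 Lentivirally transduced HEK293T libraries carried an mCherry reporter with the ribozyme switch and an EF1α-BFP marker. Transduced cells were enriched, then incubated with or without ligand for 48 h and sorted into 6 bins by mCherry/BFP. Genomic DNA from each bin was PCR-amplified, barcoded and sequenced on MiSeq. Fluorescence was the fitted normal mean of log10(mCherry/BFP) bin counts, scaled to five spiked-in control ribozymes.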

[2] = variants of: B1; experiment: normalized RNA/DNA level without ligand (relative to sTRSVctl = 100) (log10 (% of sTRSVctl)); HEK293T; ligand: cyclic di-GMP (c-di-GMP-II aptamer); higher = less ribozyme self-cleavage, higher mRNA level; conditions: reporter: mCherry (pCS4076), ligand present: no
Procedure, shortened: (§2)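 Ribozyme switch library plasmids linked to reporters were introduced into HEK293T cells at 4 µg per 6-well well, with ligand, if any, added 1 h before. Total RNA was extracted with EDTA 72 h later, reverse-transcribed, amplified, barcoded and sequenced. RNA level was computed from RNA over DNA reads relative to a spiked-in non-cleaving sequence or the top sequences, then scaled and log-transformed. The top set was 25 sequences, values were ×100 and log10, and the cutoff was ≥100 DNA reads.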

[3] = variants of: B1; experiment: FACS-Seq fitted mean relative fluorescence mCherry/BFP with ligand (log10 relative fluorescence); HEK293T; ligand: cyclic di-GMP (c-di-GMP-II aptamer); ligand concentration (+) FACS-Seq: 1 mM; higher = higher reporter protein expression; conditions: ligand present: yes
Procedure, shortened: as §1

[4] = variants of: B1; experiment: normalized RNA/DNA level with ligand (relative to sTRSVctl = 100) (log10 (% of sTRSVctl)); HEK293T; ligand: cyclic di-GMP (c-di-GMP-II aptamer); ligand concentration (+) RNA-Seq: 1 mM; higher = less ribozyme self-cleavage, higher mRNA level; conditions: reporter: mCherry (pCS4076), ligand present: yes
Procedure, shortened: as §2

Variant	FACS-Seq fitted mean (log10) [1]	normalized RNA/DNA level without ligand (log10) [2]	FACS-Seq fitted mean (log10) [3]	normalized RNA/DNA level with ligand (log10) [4]
GCUUAG	-0.473 ± 0.076	1.638 ± 0.0094	-0.165 ± 0.16	1.79 ± 0.069
GCUUAA	-0.0927 ± 0.12	1.56 ± 0.088	0.338 ± 0.039	1.7 ± 0.072
AGGAGA	-0.574 ± 0.012	1.37 ± 0.12	-0.304 ± 0.011	1.48 ± 0.025
CCUUCU	-0.619 ± 0.0079	1.6166 ± 0.0015	-0.341 ± 0.038	1.8 ± 0.063
CCUUCA	-0.388 ± 0.025	1.6013 ± 0.00017	-0.00437 ± 0.075	1.72 ± 0.15
CGCCAU	-0.339 ± 0.042	1.5 ± 0.12	-0.0661 ± 0.036	1.69 ± 0.078
CGCCAC	-0.0985 ± 0.057	1.69 ± 0.027	0.173 ± 0.026	1.84 ± 0.12
CGCCAA	-0.26 ± 0.2	1.37 ± 0.045	0.0764 ± 0.12	1.56 ± 0.15
AGCCAA	-0.274 ± 0.071	1.53 ± 0.072	-0.0148 ± 0.057	1.73 ± 0.053
AGGCAG	-0.6414 ± 0.0033	1.758 ± 0.0064	-0.399 ± 0.084	1.83 ± 0.097
UGAGUG	-0.0499 ± 0.13	1.7246 ± 0.00091	0.259 ± 0.047	1.83 ± 0.091
UGAGUC	-0.147 ± 0.039	1.7273 ± 0.0012	0.117 ± 0.074	1.87 ± 0.14
UGCAUC	-1.13 ± 0.034	1.78 ± 0.026	-0.952 ± 0.082	1.87 ± 0.099
UGCAUG	-0.116 ± 0.0019	1.734 ± 0.0063	0.0785 ± 0.1	1.85 ± 0.13
CGGAGC	0.169 ± 0.11	1.61 ± 0.052	0.426 ± 0.022	1.79 ± 0.065
UGGCAU	0.119 ± 0.25	1.66 ± 0.11	0.414 ± 0.038	1.82 ± 0.043
AGCGUC	-0.71 ± 0.022	1.78 ± 0.028	-0.542 ± 0.044	1.9 ± 0.15
AGCGUG	-0.586 ± 0.017	1.6 ± 0.017	-0.279 ± 0.04	1.78 ± 0.14

Variant	FACS-Seq fitted mean (log10) [1]	normalized RNA/DNA level without ligand (log10) [2]	FACS-Seq fitted mean (log10) [3]	normalized RNA/DNA level with ligand (log10) [4]
UGCGUU	-0.0716 ± 0.19	1.691 ± 0.0015	0.15 ± 0.093	1.9 ± 0.096
UGACUC	-0.0587 ± 0.12	1.726 ± 0.0085	0.268 ± 0.025	1.86 ± 0.12
AGAACU	-0.833 ± 0.11	1.68 ± 0.031	-0.561 ± 0.02	1.82 ± 0.11
AGAACA	0.105 ± 0.17	1.53 ± 0.036	0.348 ± 0.0047	1.72 ± 0.13
CGGAUA	-0.243 ± 0.057	1.19 ± 0.13	0.0478 ± 0.023	1.3 ± 0.1
CGGAUU	-0.623 ± 0.0076	1.4 ± 0.18	-0.3382 ± 0.0012	1.54 ± 0.038
CGCUUA	-0.545 ± 0.077	1.27 ± 0.17	-0.264 ± 0.015	1.46 ± 0.036
CGCUUU	-0.255 ± 0.035	1.46 ± 0.071	0.0291 ± 0.018	1.69 ± 0.073
UGGAAC	-0.221 ± 0.031	1.64 ± 0.033	0.11 ± 0.0057	1.83 ± 0.075
UGGAAU	-0.121 ± 0.12	1.57 ± 0.041	0.272 ± 0.075	1.77 ± 0.13
AGGAUC	-0.0729 ± 0.071	1.63 ± 0.023	0.137 ± 0.019	1.78 ± 0.1
AGGAUA	-0.5971 ± 0.0057	1.34 ± 0.12	-0.199 ± 0.011	1.49 ± 0.018
AGGAUG	-0.151 ± 0.021	1.48 ± 0.054	-0.029 ± 0.059	1.63 ± 0.16
UGCAAU	-0.335 ± 0.12	1.66 ± 0.045	-0.151 ± 0.047	1.81 ± 0.089
CGAUGC	-0.127 ± 0.16	1.722 ± 0.014	0.202 ± 0.062	1.88 ± 0.049
CGAUGA	-0.364 ± 0.049	1.47 ± 0.059	-0.172 ± 0.032	1.62 ± 0.12
AGAAUU	0.202 ± 0.13	1.65 ± 0.072	0.346 ± 0.074	1.8 ± 0.12
AGAAUG	-0.367 ± 0.045	1.48 ± 0.12	-0.126 ± 0.14	1.68 ± 0.043
